Experimental data taken from patent US20240245805A1 (Orna Therapeutics, Inc., priority 2020, published 2024).

system: HEK293 cells; assay type: cell-based, human; conditions: circular RNA encoding Gluc with the listed IRES (UTR truncated to 675 nt) transfected into HEK293 cells; supernatant after 24 hours

Molecule	Expression (luminescence from secreted Gluc protein)
Hepacivirus B (nucleic acid, Hepacivirus B) DNA: ACCACAAACACTCCAGTTTGTTACACTCCGCTAGGAATGCTCCTGGAGCACCCCCCCTAGCAGGGCGTGGGGGATTTCCCCTGCCCGTCTGCAGAAGGGTGGAGCCAACCACCTTAGTATGTAGGCGGCGGGACTCATGACGCTCGCGTGATGACAAGCGCCAAGCTTGACTTGGATGGCCCTGATGGGCGTTCATGGGTTCGGTGGTGGTGGCGCTTTAGGCAGCCTCCACGCCCACCACCTCCCAGATAGAGCGGCGGCACTGTAGGGAAGACCGGGGACCGGTCACTACCAAGGACGCAGACCTCTTTTTGAGTATCACGCCTCCGGAAGTAGTTGGGCAAGCCCACCTATATGTGTTGGGATGGTTGGGGTTAGCCATCCATACCGTACTGCCTGATAGGGTCCTTGCGAGGGGATCTGGGAGTCTCGTAGACCGTAGCAC	8.84E+04
Icavirus (nucleic acid, source: /note="Description of Unknown: Icavirus sequence") DNA: CGAAGTTTAAGCTAAGCACCCTCGGGCGTTCCCGGATTATGTGATCACATCAATTTGATGGCTGGTCACCACGCAACGCCTGGAGAGATACTCTTACTTTTCTCTTAAGATCCCCGGTCATTTGACGCTTGTAGGATGATAGGGTTATTTTCCACTATAAATACTTTCATACTCTTGGATGTTCTATATCCAAGACGGGAGGACCTACCCCGTACCCCTTAGAGGTGAGATGCCAAGAACAGGCCCTTTCTGTTCTCTCGACAATGGCATCATAGGCAACAAGCATCACACCAAGATTGCTAAGTTTTGTTAAGAGTTCTTCAAGCTATAGGGTGGCTGTAGCGACCTTCTGATGCCTGCGGATTTCCCCACGGAGCGATCCGTGCCACAGGGGCCAAAAGCCACGGCTAACGCCCATCAGGAGCGGCACTTACCCCGTGCCCCACCCTTGAAACTTGAATGTTCACACTGGCTTCTCTCGGCTTTCTGAACTGTCTGCTTGTTGGGGCCCCGAAGGATGCCCTGGAGGTACCCCATTTTATGGGATCTGACCAGGGGACACCTCAGCTCTCTAAGTTGCTGGTGTTTAAAAAACGTCTAAGGGCCCCCACCCCTTAGGTGGAGGGATCCACCTTTCCTTTATTTTTTAAAACTCTTTTATGGTCACAATTGTTT	4.41E+06
Antarctic penguin virus A (nucleic acid, chemistry not fully specified; the letters are possibly those of the target site) DNA: CTAGGAGACTACGCAGTGGGATAAGATGACTATGATGTCGTACGGGCAGAAGCCAGTACAGTCGAAGTCGAGACCGACGTCGAGGATTTGACTCTGCCTGACCTAGTGCCATC	8.42E+04
Human coxsackievirus A2 (nucleic acid, source: /note="Description of Unknown: Human coxsackievirus A2 sequence") DNA: ACCTTTGTGCGCCTGTTTTATATCCCCACCCCGAGTAAACGTTAGAAGTTACGCAACCCCGATCAATAGTAGGTGTAGCACTCCAGCTGCATCGAGATCAAGCACTTCTGTCTCCCCGGACCGAGTATCAATAGACTGCTAACGCGGTTGAAGGAGAAAACGTTCGTTACCCGGCCAATTACTTCGAGAAGCCCAGTAGTGCCGTGAAAGTTGCGGAGTGTTTCGCTCAGCACTTCCCCCGTGTAGATCAGGCTGATGAGTCACCGCGATCCCCACAGGTGACTGTGGCGGTGGCTGCGTTGGCGGCCTGCCTATGGGGCAACCCATAGGACGCTCTAATACAGACATGGTGCGAAGAGCCTATTGAGCTAATTGGTAGTCCTCCGGCCCCTGAATGCGGCTAATCCTAACTGCGGAGCACATGCCCTCAAACCAGGGGGTGGTGTGTCGTAACGGGTAACTCTGCAGCGGAACCGACTACTTTGGGTGTCCGTGTTTCTTTTTATTCTTATAATGGCTGCTTATGGTGACAATTAAAGAATTGTTACCATATAGCTATTGGATTGGCCATCCGGTGACTAACAAATCGCTCATATACCAGTTTGTTGGTTTTGTTCCCTTATCACATACAGCTCATAACACCCTCTTATATTTACTACAATTGAATAGCAAGAA	7.75E+07
Falcon picornavirus (nucleic acid, lipid formulation; source: /note="Description of Unknown: Falcon picornavirus sequence") CGCTTGGAATAAGTTGAGAGGAATTATGCATGCTAGTTGTGTTTGTTTACAACTAATTGTTCTAATCCAAGTGAAGCTCTTCGCTTGGGGCGGCACGACACTTGCCGTAATTCTTCTACCGTCCCTCCACACCTTGTGGATGAAGGGCCGGATGTGTGGCCTCTGGCTAACCCCTCTCTCTGGGGTGATGCTACTGGATGTTTTACTCCTAGACCAAATCACATGAACTCCTCTTGATCCACTTCGGTGGGGCTATGAGCCTGCGGATTAATAGCTGGCGACAGCTACCCCAGGGGCCAAAAGCCACGGTGTTAGCAGCACCCTCATAGTCTGATGCCCAAGGGCTGATGTTGGGAGCTAGTAGTGTGTGTCTGGCCTATGTTTAGGACTTCTGGCCAAGCGCAGAGGAGTGGGGCTGAAGGATGCCCAGAAGGTACCCGTAGGTAACCTTAAGAGACTATGGATCTGATCTGGGGCCCCCTCACGTGGCTTTACCACGTGTTGGGGGTTAAAAAACGTCTAGGCCCCACCAGCCCACGGGAGTGGGCTTTCCCTTAAAAAGCCCAACAATATTTATGGTGACAATTCACTGTTTCTTCTTTGCAATTTTTGTATTCTTGGACTCCTTATTTTTTGTTTGCTTGATTTTAGTGGACATTCAGATTCAAATACAAA	3.08E+06
Equine rhinitis B virus 1 (nucleic acid, lipid formulation; source: /note="Description of Unknown: Equine rhinitis B virus 1 sequence") CGACAGGCACAGGTCGCTCCGAGTTCTAGTAGTGTGGGAACTTGTTACTACTGATGAAACGAGGTAGTGACACTCAGTACCTGCGAACGAGGTCGGGGCCCTCCCTTCTTCCTTCACCCAACTTTCACTTTTCGTTCCACTTTAGCAGGGGTCTTCTTTCTATCCCCCTGGCGGCATTGGAACTAGCCGTCGCGTCTTAACGCGCAGCCCTGAAGGCCCCACACCTTGTGGATCTTGCCGTGGGTATGTTTCTGGCATGTGTTTCTCAAGCCTGCAACCGAAGCCGAACAGCCACATGAACAGTTTGAGCGTGGTAGCGCTGTGTGAGTTGGCGGTGGATCCCCCTCGTGGTAACACGAGCCCCCGTGGCCAAAAGCCCAGTGTTTACAGCACCTCTCACATCCAGGACGACCCCATCCTGGCGCTCACTCTTAGTAGTATGGCTTAGTACGCATTAGGTGGTAAGCCGAGCTCTCCCTCGGCCTTGTTCTGAATGCACACATGTCTAGGGGCTAAGGATGTCCTACAGGTACCCGCACGTAACCTTCAGAGAGTGCGGATCTGAGTAGGAGACCGTGGTGCACTGCTTTACAGATGCAGCCCGGTTTAAAAAGCGTCTATGCCCCTACAGGGTAGCGGTGGGCCGCGCCCTTTCCTTTTAAAACTACTTGTTCT	1.01E+05
Equine rhinitis A virus (nucleic acid, lipid formulation; Equine rhinitis A virus) AAGGGTTACTGCTCGTAATGAGAGCACATGACATTTTGCCAAGATTTCCTGGCAATTGTCACGGGAGAGAGGAGCCCGTTCTCGGGCACTTTTCTCTCAAACAATGTTGGCGCGCCTCGGCGCGCCCCCCCTTTTTCAGCCCCCTGTCATTGACTGGTCGAAGGCGCTCGCAATAAGACTGGTCGTTGCTTGGCTTTTCTATTGTTTCAGGCTTTAGCGCGCCCTTGCGCGGCGGGCCGTCAAGCCCGTGTGCTGTACAGCACCAGGTAACCGGACAGCGGCTTGCTGGATTTTCCCGGTGCCATTGCTCTGGATGGTGTCACCAAGCTGGCAGATGCGGAGTGAACCTTACGAAGCGACACACCTGTGGTAGCGCTGCCCAGAAGGGAGCGGAGCTCCCCCGCCGCGAGGCGGTCCTCTCTGGCCAAAAGCCCAGCGTTAATAGCGCCTTCTGGGATGCAGGAACCCCACCTGCCAGGTGTGAAGTGGACTAAGTGGATCTCCAATTTGGCCTGTTCTGAACTACACCATCTACTGCTGTGAAGAATGTCCTGAAGGCAAGCTGGTTACAGCCCTGATCAGGAGCCCCGCTCGTGACTCTCGATCGACGCGGGGTCAAAAACTGTCTAAGCAGCAGCAGAAACGCGGGAGCGTTTCTTTTTCCTCATTTGTTTC	3.73E+05
Equine arteritis virus (nucleic acid, lipid formulation; source: /note="Description of Unknown: Equine arteritis virus sequence") GCTCGAAGTGTGTATGGTGCCATATACGGCTCACCACCATATACACTGCAAGAATTACTATTCTTGTGGGCCCCTCTCGGTAAATCCTAGAGGGCTTTCCTCTCGTTATTGCGAGATTCGTCGTTAGATAACGGCAAGTTCCCTTTCTTACTATCCTATTTTCATCTTGTGGCTTGACGGGTCACTGCCATCGTCGTCGATCTCTATCAACTACCCTTGCGACT	1.89E+05
Enterovirus sp. isolate CPML (nucleic acid, listed as Enterovirus sp., lipid formulation) ACTCTGGTATCACGGTACCTTTGCACGCCTATTTTATACCCCTTCCCCATCGTAACTTAGAAGCAACAAACAAACTGCCCAATAGCAGCACAACACCCAGTTGTGTTAGGGGCAAGCACTTCTGTTTCCCCGGAAGGGTCTGACGGTATGCTGTACCCACGGCAGAAGTATGACCTACCGTTAACCGGCCATGTACTTCGAGAAGCCTAGTACCATTATGAAGGTTGATTGATGTTACGCTCCCCAGCAACCCCAGCTGGTAGTTCTGGTCGATGAGTCTCGGCATTCCCCACGGGCGACCGTGGCCGAGGCTGCGTTGGCGGCCAGCCTACACCATACGGTGTAGGACGTCAAGATACTGACATGGTGTGAAGAGCCTATTGAGCTACGTGGTAGTCCTCCGGCCCCTGAATGCGGCTAATCCTAACTCCGGAGCATCCGCCAGTAAGCCCACTGGAAGGGTGTCGTAATGCGAAAGTCTGGAGCGGAACCGACTACTTTGGGTGTCCGTGTTTCCTGTTTTACTTATTGTTTGGCTGCTTATGGTGACAACTTATAGTTATCATCATAAGCTACTTGGTCTTGCCAACCGGAGAATTATTTGGTTATTTGTTGGTTTCATAAACCTACAGTCGTATTTTCCTGTCTTATTAATTGTTCTCAAAATTAACAACA	6.83E+07
